Reference: publication PMC9820243, “Structural and Functional Characterization of a New Bacterial Dipeptidyl Peptidase III Involved in Fruiting Body Formation in Myxobacteria” (International Journal of Molecular Sciences, 2022)

B1: Dipeptidyl peptidase III from Corallococcus sp. EGB (recombinant CoDPP III) (enzyme, UniProt A0A5H1ZR28 1-537, looked up)
chain: RLPDAPTLKRMTARFAPVDVKVDVSKLPDAEKRALAKILQAAKIMDPLFLSQAWAGNPTLLLDLVEDTTPLGKERLHAFLLNKGPWSRLDEAKPFIPGVPPKPDEGNFYPAGATKAEVEAWVKSLPEAQQHAATGFFTTVRKGPDGKFLTVPYSVEYQGELGMAAKLLREAAALTQQSTLKRFLETRAEAFLSNDYYASEVAWMELDASVEPTIGPYEVYEDGWFNYKAAFEAFIGVRDEAETQKLAKFSAELQELENNLPIEPALRNPKLGALAPIRVINSLYSSGDGNRGVQTAAYNLPNDERVAAEKGTKRVMLKNIQEAKFQRVLVPIAKVALPAKDRKDVSFDAFFTHILMHELMHGLGPHNVTVAGKQTTVRQALQASSSAIEEAKADISGLWALQRLVDKGTLDKELQRTMYTTFLASAFRSIRFGIDEAHGKGIALQLNHFLDTGAVKVNADGTFEVVPDKMQASVTSLTNQLMSLQAKGDRAAAEELLAKQGVVRPSVQKVLEKLKNVPVDIEPRYVTAESLVKDFGA
notes: signal peptide in the construct; dipeptidyl peptidase III (CoDPP III) of Corallococcus sp; EGB, open reading frame of 1719 bp encoding 572 amino acids, predicted signal peptide residues 1 to 22; cloned into Nde I and Xho I sites of pET29a(+); The Xho I site of pET29a probably adds Leu-Glu before the His6 tag (surmised); also called native DPP III; source: E. coli BL21(DE3), purified (CM-Sepharose …)
B2: Selenomethionine-labelled dipeptidyl peptidase III from Corallococcus sp. EGB (enzyme, UniProt A0A5H1ZR28 1-537, looked up)
chain: B1 chain
modifications: selenomethionine (Se-Met labelled)
notes: signal peptide in the construct; dipeptidyl peptidase III (CoDPP III) of Corallococcus sp; EGB, same pET29a-Codpp III construct as m1 (572 amino acids, predicted signal peptide residues 1 to 22); the final model lacks 27 amino acids at the N-terminus and 8 (chain A) or 12 (chain B) at the C-terminus; Same construct as m1, expressed in a methionine auxotroph with Se-Met; also called Se-CoDPPIII; …

Tests used:
[1] = target: the molecule itself; assay: SEC; HiLoad 16/600 Superdex 200 pg, 20 mM Tris-HCl (pH 7.0) with 0.1 M NaCl, 1 mL/min; mass standards ovalbumin, conalbumin, aldolase, ferritin
[2] = target: the molecule itself; assay: crystal structure; Se-Met-labelled protein, sitting-drop vapor diffusion at 20 °C, 0.1 M sodium acetate trihydrate pH 4.59, 24% w/v PEG 3350, 0.01 M TCEP; SAD, 1.90 Å; ligand-free, two molecules in the asymmetric unit

Protein	stoichiometry N [1]	binding result [2]
B1	2	
B2		binds
